Assay results published in US7022815 (GENERAL HOSPITAL, dated 2006).
“And” between values parts separate entries of the source, which are not always exact repeats. Equal values may be shown once. Non-standard residues stand in square brackets, D forms with d. No end group written: not given here. Nle = CCCC[C@H](N)C(=O)O

T1: human PTH-1 receptor (human, UniProt Q03431 27-593)
T1 sequence (looked up): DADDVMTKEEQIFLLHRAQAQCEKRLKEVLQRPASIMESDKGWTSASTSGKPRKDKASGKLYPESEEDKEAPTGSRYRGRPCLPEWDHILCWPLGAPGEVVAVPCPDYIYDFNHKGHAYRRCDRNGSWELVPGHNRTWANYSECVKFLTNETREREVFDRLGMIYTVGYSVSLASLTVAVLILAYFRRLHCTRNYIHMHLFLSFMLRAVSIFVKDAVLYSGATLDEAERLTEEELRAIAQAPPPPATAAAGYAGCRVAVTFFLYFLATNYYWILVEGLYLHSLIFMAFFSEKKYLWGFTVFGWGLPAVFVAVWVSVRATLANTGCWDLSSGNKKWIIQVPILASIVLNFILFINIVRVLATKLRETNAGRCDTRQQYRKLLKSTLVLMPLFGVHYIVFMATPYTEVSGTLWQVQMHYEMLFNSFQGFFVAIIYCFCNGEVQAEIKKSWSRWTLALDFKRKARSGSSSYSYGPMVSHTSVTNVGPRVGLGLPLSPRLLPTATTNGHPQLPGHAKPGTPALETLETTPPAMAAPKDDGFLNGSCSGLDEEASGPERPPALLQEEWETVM

T2: rat PTH-1 receptor (rat, UniProt P25961 27-591)
T2 sequence (looked up): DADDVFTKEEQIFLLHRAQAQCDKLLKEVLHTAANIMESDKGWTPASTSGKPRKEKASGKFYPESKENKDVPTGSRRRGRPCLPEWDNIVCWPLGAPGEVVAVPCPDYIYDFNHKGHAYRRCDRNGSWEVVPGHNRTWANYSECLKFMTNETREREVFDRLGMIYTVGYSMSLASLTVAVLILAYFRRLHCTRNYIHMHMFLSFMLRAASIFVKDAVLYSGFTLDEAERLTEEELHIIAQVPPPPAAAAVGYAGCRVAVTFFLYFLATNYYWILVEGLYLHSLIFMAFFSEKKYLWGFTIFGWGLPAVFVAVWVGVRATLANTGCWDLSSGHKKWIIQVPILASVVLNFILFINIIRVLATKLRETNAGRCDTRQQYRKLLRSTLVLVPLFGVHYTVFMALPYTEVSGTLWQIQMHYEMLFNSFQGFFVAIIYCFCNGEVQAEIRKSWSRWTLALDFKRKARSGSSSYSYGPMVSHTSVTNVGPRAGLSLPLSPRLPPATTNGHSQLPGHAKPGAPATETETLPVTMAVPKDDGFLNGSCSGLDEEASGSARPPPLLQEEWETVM


Assays:
human PTH-1 receptor [1] = target: T1, human PTH-1 receptor; assay: cell-based or functional assay
human PTH-2 receptor = human PTH-2 receptor (human, UniProt P49190 25-550); assay: cell-based or functional assay
[2] = target: truncated human PTH-1 receptor hDelNt (human), Q03431; assay: cell-based or functional assay
human PTH-1 receptor [3] = target: T1, human PTH-1 receptor; assay: cell-based or functional assay; remark: listed apart in the source
rat PTH-1 receptor = target: T2, rat PTH-1 receptor; assay: cell-based or functional assay
human PTH-1 receptor [4] = target: T1, human PTH-1 receptor; assay: cell-based or functional assay; remark: listed apart in the source
human PTH-1 receptor [5] = target: T1, human PTH-1 receptor; assay: cell-based or functional assay; remark: listed apart in the source
human PTH-1 receptor [6] = target: T1, human PTH-1 receptor; assay: competition binding on HKRK-B7 cells, 125I-rPTH(1-34) tracer displaced by varying doses of unlabeled peptide
Procedure: Binding reactions were performed with stably transfected HKRK-B7 cells in 24-well plates. […] Incubations (final volume=300 µL) were at 15° C. for 4 h. Cells were then placed on ice, the binding medium was removed, and the monolayer was rinsed three times with 0.5 mL of cold binding buffer. The cells were subsequently lysed with 0.5 mL 5N NaOH and counted for radioactivity. The non-specific binding for each experiment was determined by competition with a 1 µM dose of unlabeled rPTH(1–34). The maximum specific binding (B_0) was the total radioactivity bound in the absence of unlabeled PTH ligand, corrected for nonspecific binding. Binding $IC50$ values were determined using nonlinear regression (see below).
To determine if these substitutions could enhance the activity of PTH(1–34), the substitutions of Ser3→Ala, Asn10→Ala, Leu11→Arg and Gly12→Ala were introduced into the analog [Ala1,Tyr34]hPTH(1–34) to yield peptide #7.

Sequence of human PTH-2 receptor (P49190 25-550): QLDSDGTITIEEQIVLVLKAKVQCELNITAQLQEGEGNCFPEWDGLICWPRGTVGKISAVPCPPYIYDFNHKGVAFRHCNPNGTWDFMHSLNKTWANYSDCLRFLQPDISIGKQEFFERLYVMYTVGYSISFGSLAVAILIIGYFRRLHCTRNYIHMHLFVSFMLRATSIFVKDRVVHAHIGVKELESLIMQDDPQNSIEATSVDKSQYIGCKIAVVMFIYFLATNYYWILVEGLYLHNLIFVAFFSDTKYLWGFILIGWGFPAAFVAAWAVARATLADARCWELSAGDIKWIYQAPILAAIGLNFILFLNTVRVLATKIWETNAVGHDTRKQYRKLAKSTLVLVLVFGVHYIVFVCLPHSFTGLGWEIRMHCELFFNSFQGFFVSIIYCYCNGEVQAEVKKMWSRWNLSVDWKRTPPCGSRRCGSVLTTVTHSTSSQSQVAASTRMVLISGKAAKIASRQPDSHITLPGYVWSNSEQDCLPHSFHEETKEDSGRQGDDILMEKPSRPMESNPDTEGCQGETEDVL

Binder | cAMP EC50, HKRK-B7 cells (human PTH-1 receptor [1]) | cAMP Emax, HKRK-B7 cells (human PTH-1 receptor [1]) | cAMP EC50, LLC-P2R-22 cells (human PTH-2 receptor) | cAMP Emax, LLC-P2R-22 cells (human PTH-2 receptor) | cAMP Emax, COS-7 cells with hDeINt (picomole/well) [2] | cAMP potency against native PTH(1-14) [2] | cAMP EC50, SAOS-2 cells (human PTH-1 receptor [3]) | cAMP Emax, SAOS-2 cells (human PTH-1 receptor [3]) | cAMP EC50, ROS 17/2.8 cells (rat PTH-1 receptor) | cAMP Emax, ROS 17/2.8 cells (rat PTH-1 receptor) | cAMP EC50, COS-7 cells with WT hPTH-1 receptor (human PTH-1 receptor [4]) | cAMP Emax, COS-7 cells with WT hPTH-1 receptor (human PTH-1 receptor [4]) | cAMP potency against native PTH(1-14) (human PTH-1 receptor [5]) | fold improvement in binding affinity, as compared to rPTH(1-34) (human PTH-1 receptor [6]) | cAMP potency against controls, HKRK-B7 cells (human PTH-1 receptor [5])
AVAEIQLMHQRAKH-NH2 [[A3, Q10, R11, A12]rPTH(1-14)] | -6.1 Log M and 0.8 µM | 235 picomole/well |  |  |  |  |  |  |  |  |  |  |  |  | 
AVAEIQLMHARAKH-NH2 [[A3, A10, R11, A12]rPTH(1-14)] | -6.1 Log M and 0.83 µM | 264 picomole/well | -3.9 Log M and 126 µM | 292 picomole/well | 250 | 100 fold | 12.7 µM and -4.9 Log M | 331 picomole/well | -5.2 Log M and 7.3 µM | 395 picomole/well | -6 Log M and 4.66 µM | 243 picomole/well |  |  | 
AVSEIQLMHNLGKH-NH2 [native rPTH(1-14)] | -3.9 Log M and 133 µM | 299 picomole/well |  |  | 222 |  |  |  | -3.4 Log M and 449 µM | 376 picomole/well | -3.8 Log M and 152 µM | 221 picomole/well |  |  | 
AVAEIQLMHARA-NH2 [[A3, A10, R11, A12]rPTH(1-12)] | -5 Log M and 10.2 µM | 238 picomole/well | -3.5 Log M and 342 µM | 501 picomole/well |  |  |  |  |  |  |  |  |  |  | 
AVAEIQLMHARAK-NH2 [[A3, A10, R11, A12]rPTH(1-13)] | -5.6 Log M and 2.4 µM | 239 picomole/well | -4 Log M and 106 µM | 501 picomole/well |  |  |  |  |  |  |  |  |  |  | 
AVAEIQLMHARAKW-NH2 [[A3, A10, R11, A12, W14]rPTH(1-14)] | -6.3 Log M and 0.6 µM | 262 picomole/well |  |  |  |  |  |  | 3.4 µM | 382 picomole/well |  |  | 220 fold |  | 
AVSEIQL[Nle]HNLGKHLASVER[Nle]QWLRKKLQDVHNY-NH2 [[Nle^8,21,Tyr^34]-rPTH(1-34)NH2] | -8.6 Log M and 0.0033 µM | 293 picomole/well | -8.4 Log M and 0.0044 µM | 744 picomole/well | 243 |  | -9.75 Log M and 0.00018 µM | 272 picomole/well | -9.5 Log M and 0.0003 µM | 364 picomole/well | -9.2 Log M and 0.0007 µM | 226 picomole/well |  |  | 
SVSEIQLMHNLGKHLNSMERVEWLRKKLQDVHNY-NH2 [[Tyr^34]human (h)PTH(1-34)NH2] | -8.4 Log M | 270 picomole/well |  |  | 238 |  |  | 307 picomole/well | -9.6 Log M and 0.0003 µM | 340 picomole/well | -9.3 Log M | 226 picomole/well |  |  | 
AVAEIQLMHARAKHLNSMERVEWLRKKLQDVHNY-NH2 (also called peptide #7; #7) [[A1, A3, A10, R11, A12, Y34]hPTH(1-34)] | -8.8 Log M and 0.0016 µM | 244 picomole/well | -7.7 Log M and 0.0192 µM | 677 picomole/well | 251 |  | 0.00011 µM and -9.95 Log M | 272 picomole/well | -9.6 Log M and 0.0002 µM | 395 picomole/well | -3.5 Log M and 313 µM | 222 picomole/well |  | ~2 fold | ~2 fold
AVAEIQLMHAR-NH2 [[A3, A10, R11]rPTH(1-11)] | -4.8 Log M and 17.1 µM | 248 picomole/well |  |  | 243 |  | 94.7 µM and -4.12 Log M | 235 picomole/well | 133 µM and -3.9 Log M | 377 picomole/well | -4.6 Log M and 29.1 µM | 238 picomole/well |  |  | 
